Experimental data taken from patent US20170081417A1 (Kyowa Kirin, published 2017).
No end group written: not given here.

Experiments:
human OX40 peptide 112B = biological target: T1, human OX40 peptide 112B (human, also: conjugated to KLH via maleimide linker); test: ELISA on coated KLH-conjugated peptide
T1 peptide: RAGTQPLDSYKPGVDC
Protocol: (§1) Antibody titers, specificity, and production by hybridomas were determined by ELISA. In brief, 96 well flat bottom plates were coated with 50 μl of hOX40:hFc at 5 μg/ml in carbonate buffer (pH 9.4) overnight at 4° C. or at 37° C. for one hour. After washing twice with PBS/0.1% Tween 20, plates were blocked with PBS/1% BSA/0.1% Tween20 at 37° C. for one hour. The serum, supernatant, or purified antibody was diluted in blocking buffer, added to the wells, and the plates were incubated for one hour at 37° C. The plates were washed four times with PBS/0.1% Tween 20 and the peroxidase conjugated sheep anti-human kappa detection antibody (The Binding Site, Birmigham, UK) was added at a dilution of 1:2000. Following one hour incubation at 37° C., the plates were washed and the TMB (Sigma) substrate was added and incubated at room temperature for ten to thirty minutes. The reaction was stopped with H₂SO₄ (LabChem) and the optical density was measured at 450 nm by a microplate reader.
(§2) The peptides were generated by A & A Lab, LLC and conjugated to keyhole limpet hemocyanin (“KLH”) with a maleimide linker following the manufacturer's instructions (Pierce). The peptides were coated at 10 μg/ml in carbonate buffer to 96 well Maxisorp ELISA plates (Nunc) at 4° C. overnight. The plate was washed with PBS/0.1% Tween 20 and then blocked with Casein buffer (Pierce) for three hours at room temperature. Candidate antibodies were added at 10 μg/ml diluted in 10% Casein in PBS/0.1% Tween 20. The remainder of the ELISA was performed as described for the OX40 specific antibody detection ELISA.

human OX40 peptide 112A = biological target: T2, human OX40 peptide 112A (human, also: conjugated to KLH via maleimide linker); test: ELISA on coated KLH-conjugated peptide
T2 peptide: RPAGPGFYNDVVSSKPC
Protocol: as §1, §2

human OX40 peptide 112C = biological target: T3, human OX40 peptide 112C (human, also: conjugated to KLH via maleimide linker); test: ELISA on coated KLH-conjugated peptide
T3 peptide: LAGKHTLQPASNSSDAIC
Protocol: as §1, §2

[1] = biological target: T4, human OX40 extracellular domain fused to the Fc portion of human IgG1 (hOX40:hFc) (human); test: ELISA, blocking of OX40L-FLAG binding to coated hOX40:hFc
T4 construct: Made in Tn5 insect cells; also called OX40-hIgG1; human OX40:hIgG1 fusion protein
T4 sequence (chain, as listed by the source limits assumed): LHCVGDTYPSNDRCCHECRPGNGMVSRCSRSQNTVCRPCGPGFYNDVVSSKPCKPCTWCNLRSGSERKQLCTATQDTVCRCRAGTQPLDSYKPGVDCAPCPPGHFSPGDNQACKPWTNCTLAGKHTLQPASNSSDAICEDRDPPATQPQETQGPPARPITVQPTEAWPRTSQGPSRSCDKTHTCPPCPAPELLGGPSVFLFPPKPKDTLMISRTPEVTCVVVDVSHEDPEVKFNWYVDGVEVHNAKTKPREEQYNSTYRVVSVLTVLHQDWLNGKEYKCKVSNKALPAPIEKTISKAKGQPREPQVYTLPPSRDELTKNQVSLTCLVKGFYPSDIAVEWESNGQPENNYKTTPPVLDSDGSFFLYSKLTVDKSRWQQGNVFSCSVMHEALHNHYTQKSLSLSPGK
Protocol: (§3) The ability of 112F32, 112V8, 112Y131, 112Y55, and 112Z5 to block soluble hOX40L binding to coated hOX40:hFc fusion protein was tested using an ELISA protocol (FIG. 5A, Table 3). The plates were coated with hOX40:hFc and after blocking non-specific sites the anti-OX40 antibodies were allowed to bind. Without washing OX40L-FLAG was added to the wells. Bound ligand was detected with anti-FLAG-HRP secondary antibody. Percent inhibition was determined using the following formula (100−(OD sample/OD maximum OX40L binding))*100. 112V8, 112Y55, and 112Y131 prevented 85% of the binding of soluble OX40L to hOX40:hFc. 112F32 prevented approximately 70% of the binding of soluble hOX40L to hOX40:hFc and 112Z5 blocked 67% of the maximal binding.

[2] = biological target: T4, human OX40 extracellular domain fused …; test: ELISA, OX40L-FLAG binding to coated hOX40:hFc, anti-FLAG-HRP
Protocol: as §3

Binder | binding result (human OX40 peptide 112B) | binding result (human OX40 peptide 112A) | binding result (human OX40 peptide 112C) | IC50 [1] [µg/mL] | percent inhibition of OX40L binding [2] [%]
112Y55 human anti-human OX40 monoclonal antibody (hybridoma ATCC No. PTA-7220) (antibody, V domains shown) VH: QITLKESGPTLVKPTQTLTLSCTFSGFSLSTSGVGVGWIRQPPGKALEWLALIHWDDAERYSPSLKSRLTITKDTSKNQVVLTMTNMDLVDTATYYCAHTRGAFDIWGQGTMVTVSS VL: EIVLTQSPGTLSLSPGERAILSCRASQSVSSSFLAWYQQKPGQAPRLLIYGAFSRATGIPDRFSGSGSGTDFTLTISRLEPEDFAVYYCQQYDSSRTFGQGTKVEIK | no binding (tested: 10 µg/ml) | no binding (tested: 10 µg/ml) | no binding (tested: 10 µg/ml) | 0.073 | 85
112Y131 human anti-human OX40 monoclonal antibody (hybridoma ATCC No. PTA-7218) (antibody, V domains shown) VH: QITLKESGPTLVKPTQTLTLTCTFSGFSLSTSGVGVGWIRQPPGKALEWLALIYWDDHSPYSPSLKSRLTITKDTSKNQVVLTMTNMDPVDTATYYCARTRGAFDIWGQGTMVTVSS VL: EIVLTQSPATLSLSPGERATLSCRASQGVSSYLAWYQQKPGQAPRLLIYDASNRATGIPARFSGSGPGTDFTLTISSLEPEDFAVYYCQQRSNWHPTFGQGTKVEIK | no binding (tested: 10 µg/ml) | no binding (tested: 10 µg/ml) | no binding (tested: 10 µg/ml) | 0.069 | 85
